In patent US20260001928A1 (CORTERIA PHARMACEUTICALS, priority 2022, published 2026):
*1 amine or outer side, *2 acyl side, *3 side chain or, on linkers, in order; H or OH if unused. Where no end group is shown, it is not given here. Side-chain parts run from the residue outwards. [ ]: non-standard residue; d: D form. The star is where a group is joined. C20 diacid = O=C(O)CCCCCCCCCCCCCCCCCCC(=O)*; C16 diacid = O=C(O)CCCCCCCCCCCCCCC(=O)*; γGlu = O=C(O)[C@H](CCC(=O)[*:2])N[*:1]; NMeI = CC[C@H](C)[C@H](NC)C(=O)O; Pentanoyl = CCCCC(=O)*; AEEA = NCCOCCOCC(=O)O; Aib = CC(C)(N)C(=O)O

Target: human corticotropin-releasing factor 2a (CRF2a receptor) (human), Q13324
Assay: cell-based or functional assay

Chain of human corticotropin-releasing factor 2a (CRF2a receptor) (human), Q13324 (Q13324 20-411): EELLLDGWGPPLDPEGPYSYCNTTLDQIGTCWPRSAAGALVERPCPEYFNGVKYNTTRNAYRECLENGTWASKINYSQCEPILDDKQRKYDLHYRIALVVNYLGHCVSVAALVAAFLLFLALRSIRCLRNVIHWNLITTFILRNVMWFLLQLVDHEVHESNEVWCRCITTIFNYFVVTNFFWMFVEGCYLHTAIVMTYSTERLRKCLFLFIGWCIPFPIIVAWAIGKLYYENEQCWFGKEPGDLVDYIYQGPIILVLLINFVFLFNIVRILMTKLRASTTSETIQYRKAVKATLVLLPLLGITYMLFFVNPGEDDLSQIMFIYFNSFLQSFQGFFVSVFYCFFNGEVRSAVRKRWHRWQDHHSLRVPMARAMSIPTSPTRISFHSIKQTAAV

B1: SEQ ID NO 234 (peptide)
peptide: [NMeI]VLSLD[dV]PIKLK([AEEA-γGlu-C20 diacid])KILLEQEKQK[Aib]QREQAETN[Aib]QILAQV-NH2
modifications: N-terminus assumed
SMILES: CC[C@H](C)[C@H](NC)C(=O)N[C@H](C(=O)N[C@@H](CC(C)C)C(=O)N[C@@H](CO)C(=O)N[C@@H](CC(C)C)C(=O)N[C@@H](CC(=O)O)C(=O)N[C@@H](C(=O)N1CCC[C@H]1C(=O)N[C@H](C(=O)N[C@@H](CCCCN)C(=O)N[C@@H](CC(C)C)C(=O)N[C@@H](CCCCNC(=O)COCCOCCNC(=O)CC[C@H](NC(=O)CCCCCCCCCCCCCCCCCCC(=O)O)C(=O)O)C(=O)N[C@@H](CCCCN)C(=O)N[C@H](C(=O)N[C@@H](CC(C)C)C(=O)N[C@@H](CC(C)C)C(=O)N[C@@H](CCC(=O)O)C(=O)N[C@@H](CCC(N)=O)C(=O)N[C@@H](CCC(=O)O)C(=O)N[C@@H](CCCCN)C(=O)N[C@@H](CCC(N)=O)C(=O)N[C@@H](CCCCN)C(=O)NC(C)(C)C(=O)N[C@@H](CCC(N)=O)C(=O)N[C@@H](CCCNC(=N)N)C(=O)N[C@@H](CCC(=O)O)C(=O)N[C@@H](CCC(N)=O)C(=O)N[C@@H](C)C(=O)N[C@@H](CCC(=O)O)C(=O)N[C@H](C(=O)N[C@@H](CC(N)=O)C(=O)NC(C)(C)C(=O)N[C@@H](CCC(N)=O)C(=O)N[C@H](C(=O)N[C@@H](CC(C)C)C(=O)N[C@@H](C)C(=O)N[C@@H](CCC(N)=O)C(=O)N[C@H](C(N)=O)C(C)C)[C@@H](C)CC)[C@@H](C)O)[C@@H](C)CC)[C@@H](C)CC)C(C)C)C(C)C
EC50 [nM] (cAMP): 0.09 nM

B2: SEQ ID NO 14 (peptide)
peptide: H-IVLSLD[dV]PIKLK([γGlu-C16 diacid])QILLKQERQKKQREQAEKNTQILEQV-NH2
SMILES: CC[C@H](C)[C@H](N)C(=O)N[C@H](C(=O)N[C@@H](CC(C)C)C(=O)N[C@@H](CO)C(=O)N[C@@H](CC(C)C)C(=O)N[C@@H](CC(=O)O)C(=O)N[C@@H](C(=O)N1CCC[C@H]1C(=O)N[C@H](C(=O)N[C@@H](CCCCN)C(=O)N[C@@H](CC(C)C)C(=O)N[C@@H](CCCCNC(=O)CC[C@H](NC(=O)CCCCCCCCCCCCCCC(=O)O)C(=O)O)C(=O)N[C@@H](CCC(N)=O)C(=O)N[C@H](C(=O)N[C@@H](CC(C)C)C(=O)N[C@@H](CC(C)C)C(=O)N[C@@H](CCCCN)C(=O)N[C@@H](CCC(N)=O)C(=O)N[C@@H](CCC(=O)O)C(=O)N[C@@H](CCCNC(=N)N)C(=O)N[C@@H](CCC(N)=O)C(=O)N[C@@H](CCCCN)C(=O)N[C@@H](CCCCN)C(=O)N[C@@H](CCC(N)=O)C(=O)N[C@@H](CCCNC(=N)N)C(=O)N[C@@H](CCC(=O)O)C(=O)N[C@@H](CCC(N)=O)C(=O)N[C@@H](C)C(=O)N[C@@H](CCC(=O)O)C(=O)N[C@@H](CCCCN)C(=O)N[C@@H](CC(N)=O)C(=O)N[C@H](C(=O)N[C@@H](CCC(N)=O)C(=O)N[C@H](C(=O)N[C@@H](CC(C)C)C(=O)N[C@@H](CCC(=O)O)C(=O)N[C@@H](CCC(N)=O)C(=O)N[C@H](C(N)=O)C(C)C)[C@@H](C)CC)[C@@H](C)O)[C@@H](C)CC)[C@@H](C)CC)C(C)C)C(C)C
EC50 [nM] (cAMP): 0.26 nM

B3: SEQ ID NO 232 (peptide)
peptide: Ac-IVLSLD[dV]PIKLK([AEEA-γGlu-C20 diacid])KILLEQEKQKAQREQAETN[Aib]QILAQV-NH2
SMILES: CC[C@H](C)[C@H](NC(C)=O)C(=O)N[C@H](C(=O)N[C@@H](CC(C)C)C(=O)N[C@@H](CO)C(=O)N[C@@H](CC(C)C)C(=O)N[C@@H](CC(=O)O)C(=O)N[C@@H](C(=O)N1CCC[C@H]1C(=O)N[C@H](C(=O)N[C@@H](CCCCN)C(=O)N[C@@H](CC(C)C)C(=O)N[C@@H](CCCCNC(=O)COCCOCCNC(=O)CC[C@H](NC(=O)CCCCCCCCCCCCCCCCCCC(=O)O)C(=O)O)C(=O)N[C@@H](CCCCN)C(=O)N[C@H](C(=O)N[C@@H](CC(C)C)C(=O)N[C@@H](CC(C)C)C(=O)N[C@@H](CCC(=O)O)C(=O)N[C@@H](CCC(N)=O)C(=O)N[C@@H](CCC(=O)O)C(=O)N[C@@H](CCCCN)C(=O)N[C@@H](CCC(N)=O)C(=O)N[C@@H](CCCCN)C(=O)N[C@@H](C)C(=O)N[C@@H](CCC(N)=O)C(=O)N[C@@H](CCCNC(=N)N)C(=O)N[C@@H](CCC(=O)O)C(=O)N[C@@H](CCC(N)=O)C(=O)N[C@@H](C)C(=O)N[C@@H](CCC(=O)O)C(=O)N[C@H](C(=O)N[C@@H](CC(N)=O)C(=O)NC(C)(C)C(=O)N[C@@H](CCC(N)=O)C(=O)N[C@H](C(=O)N[C@@H](CC(C)C)C(=O)N[C@@H](C)C(=O)N[C@@H](CCC(N)=O)C(=O)N[C@H](C(N)=O)C(C)C)[C@@H](C)CC)[C@@H](C)O)[C@@H](C)CC)[C@@H](C)CC)C(C)C)C(C)C
EC50 [nM] (cAMP): 0.12 nM

B4: SEQ ID NO 233 (peptide)
peptide: [NMeI]VLSLD[dV]PIKLK([AEEA-γGlu-C20 diacid])KILLEQEKQKEQREQAETN[Aib]QILAQV-NH2
modifications: N-terminus assumed
SMILES: CC[C@H](C)[C@H](NC)C(=O)N[C@H](C(=O)N[C@@H](CC(C)C)C(=O)N[C@@H](CO)C(=O)N[C@@H](CC(C)C)C(=O)N[C@@H](CC(=O)O)C(=O)N[C@@H](C(=O)N1CCC[C@H]1C(=O)N[C@H](C(=O)N[C@@H](CCCCN)C(=O)N[C@@H](CC(C)C)C(=O)N[C@@H](CCCCNC(=O)COCCOCCNC(=O)CC[C@H](NC(=O)CCCCCCCCCCCCCCCCCCC(=O)O)C(=O)O)C(=O)N[C@@H](CCCCN)C(=O)N[C@H](C(=O)N[C@@H](CC(C)C)C(=O)N[C@@H](CC(C)C)C(=O)N[C@@H](CCC(=O)O)C(=O)N[C@@H](CCC(N)=O)C(=O)N[C@@H](CCC(=O)O)C(=O)N[C@@H](CCCCN)C(=O)N[C@@H](CCC(N)=O)C(=O)N[C@@H](CCCCN)C(=O)N[C@@H](CCC(=O)O)C(=O)N[C@@H](CCC(N)=O)C(=O)N[C@@H](CCCNC(=N)N)C(=O)N[C@@H](CCC(=O)O)C(=O)N[C@@H](CCC(N)=O)C(=O)N[C@@H](C)C(=O)N[C@@H](CCC(=O)O)C(=O)N[C@H](C(=O)N[C@@H](CC(N)=O)C(=O)NC(C)(C)C(=O)N[C@@H](CCC(N)=O)C(=O)N[C@H](C(=O)N[C@@H](CC(C)C)C(=O)N[C@@H](C)C(=O)N[C@@H](CCC(N)=O)C(=O)N[C@H](C(N)=O)C(C)C)[C@@H](C)CC)[C@@H](C)O)[C@@H](C)CC)[C@@H](C)CC)C(C)C)C(C)C
EC50 [nM] (cAMP): 0.12 nM

B5: SEQ ID NO 236 (peptide)
peptide: Ac-IVLSLD[dV]PIKLK([AEEA-AEEA-γGlu-C20 diacid])KILLEQEKQKEQREQAETN[Aib]QILAQV-NH2
SMILES: CC[C@H](C)[C@H](NC(C)=O)C(=O)N[C@H](C(=O)N[C@@H](CC(C)C)C(=O)N[C@@H](CO)C(=O)N[C@@H](CC(C)C)C(=O)N[C@@H](CC(=O)O)C(=O)N[C@@H](C(=O)N1CCC[C@H]1C(=O)N[C@H](C(=O)N[C@@H](CCCCN)C(=O)N[C@@H](CC(C)C)C(=O)N[C@@H](CCCCNC(=O)COCCOCCNC(=O)COCCOCCNC(=O)CC[C@H](NC(=O)CCCCCCCCCCCCCCCCCCC(=O)O)C(=O)O)C(=O)N[C@@H](CCCCN)C(=O)N[C@H](C(=O)N[C@@H](CC(C)C)C(=O)N[C@@H](CC(C)C)C(=O)N[C@@H](CCC(=O)O)C(=O)N[C@@H](CCC(N)=O)C(=O)N[C@@H](CCC(=O)O)C(=O)N[C@@H](CCCCN)C(=O)N[C@@H](CCC(N)=O)C(=O)N[C@@H](CCCCN)C(=O)N[C@@H](CCC(=O)O)C(=O)N[C@@H](CCC(N)=O)C(=O)N[C@@H](CCCNC(=N)N)C(=O)N[C@@H](CCC(=O)O)C(=O)N[C@@H](CCC(N)=O)C(=O)N[C@@H](C)C(=O)N[C@@H](CCC(=O)O)C(=O)N[C@H](C(=O)N[C@@H](CC(N)=O)C(=O)NC(C)(C)C(=O)N[C@@H](CCC(N)=O)C(=O)N[C@H](C(=O)N[C@@H](CC(C)C)C(=O)N[C@@H](C)C(=O)N[C@@H](CCC(N)=O)C(=O)N[C@H](C(N)=O)C(C)C)[C@@H](C)CC)[C@@H](C)O)[C@@H](C)CC)[C@@H](C)CC)C(C)C)C(C)C
EC50 [nM] (cAMP): 0.54 nM

B6: SEQ ID NO 235 (peptide)
peptide: Pentanoyl-VLSLD[dV]PIKLK([AEEA-γGlu-C20 diacid])KILLEQEKQKKQREQAETN[Aib]QILAQV-NH2
SMILES: CCCCC(=O)N[C@H](C(=O)N[C@@H](CC(C)C)C(=O)N[C@@H](CO)C(=O)N[C@@H](CC(C)C)C(=O)N[C@@H](CC(=O)O)C(=O)N[C@@H](C(=O)N1CCC[C@H]1C(=O)N[C@H](C(=O)N[C@@H](CCCCN)C(=O)N[C@@H](CC(C)C)C(=O)N[C@@H](CCCCNC(=O)COCCOCCNC(=O)CC[C@H](NC(=O)CCCCCCCCCCCCCCCCCCC(=O)O)C(=O)O)C(=O)N[C@@H](CCCCN)C(=O)N[C@H](C(=O)N[C@@H](CC(C)C)C(=O)N[C@@H](CC(C)C)C(=O)N[C@@H](CCC(=O)O)C(=O)N[C@@H](CCC(N)=O)C(=O)N[C@@H](CCC(=O)O)C(=O)N[C@@H](CCCCN)C(=O)N[C@@H](CCC(N)=O)C(=O)N[C@@H](CCCCN)C(=O)N[C@@H](CCCCN)C(=O)N[C@@H](CCC(N)=O)C(=O)N[C@@H](CCCNC(=N)N)C(=O)N[C@@H](CCC(=O)O)C(=O)N[C@@H](CCC(N)=O)C(=O)N[C@@H](C)C(=O)N[C@@H](CCC(=O)O)C(=O)N[C@H](C(=O)N[C@@H](CC(N)=O)C(=O)NC(C)(C)C(=O)N[C@@H](CCC(N)=O)C(=O)N[C@H](C(=O)N[C@@H](CC(C)C)C(=O)N[C@@H](C)C(=O)N[C@@H](CCC(N)=O)C(=O)N[C@H](C(N)=O)C(C)C)[C@@H](C)CC)[C@@H](C)O)[C@@H](C)CC)[C@@H](C)CC)C(C)C)C(C)C
EC50 [nM] (cAMP): 0.16 nM
